Results: article PMC6650547 (mBio, 2019)

Target: T1, His-SUDV-NP(34-367) (Sudan virus (SUDV), strain Boniface, UniProt Q9QP77 34-367)
T1 sequence: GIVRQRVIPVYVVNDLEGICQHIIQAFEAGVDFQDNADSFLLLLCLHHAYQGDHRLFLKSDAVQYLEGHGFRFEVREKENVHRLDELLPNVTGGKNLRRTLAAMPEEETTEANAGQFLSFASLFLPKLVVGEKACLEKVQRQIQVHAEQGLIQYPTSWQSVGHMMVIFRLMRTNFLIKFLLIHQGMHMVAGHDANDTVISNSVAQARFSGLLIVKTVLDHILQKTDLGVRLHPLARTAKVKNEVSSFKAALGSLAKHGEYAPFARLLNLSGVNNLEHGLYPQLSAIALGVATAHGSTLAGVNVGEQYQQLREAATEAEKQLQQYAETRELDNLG
Assay: BLI; […] ([…]), 60 s association, 60 s dissociation; […]; Octet Red
Settings: both partners purified

MQQDRTYRHHGPEVSGWFSEQLMTGKIPLTEVFV [SUDV VP35 wild-type chaperone domain peptide (residues 1 to 34)]
Kd: ~3.86 nM
